Data on 10 molecules can be found in patent publication US20250034239A1 (LINNO PHARMACEUTICALS, published 2025).

Sequences and labels used below:
B1: SLN0044 VHH-OVA-His (VHH)
chain: DVQLVESGGGSVQAGGSLRLSCAASIYTYSTACMAWFRQAPGKEREGVAAIARYGDTTYTDSVKGRFTISRDVAKNILYLQMSSLKPEDTAMYYCASKSPNSGCDEYAHYETFGQGTQVTVSSGSIGAASMEFCFDVFKELKVHHANENIFYCPIAIMSALAMVYLGAKDSTRTQINKVVRFDKLPGFGDSIEAQCGTSVNVHSSLRDILNQITKPNDVYSFSLASRLYAEERYPILPEYLQCVKELYRGGLEPINFQTAADQARELINSWVESQTNGIIRNVLQPSSVDSQTAMVLVNAIVFKGLWEKAFKDEDTQAMPFRVTEQESKPVQMMYQIGLFRVASMASEKMKILELPFASGTMSMLVLLPDEVSGLEQLESIINFEKLTEWTSSNVMEERKIKVYLPRMKMEEKYNLTSVLMAMGITDVFSSSANLSGISSAESLKISQAVHAAHAEINEAGREVVGSAEAGVDAASVSEEFRADHPFLFCIKHIATNAVLFFGRCVSP
notes: Tested as recombinant VHH-OVA-His; not shown: His tag
B2: SLN0065 VHH-OVA-His (VHH)
chain: EVQLVESGGGSVQAGGSLRLSCLYTDSLFWMGWFRQTPGNEREGVAVTGRDGSTIYADSVQGRFTISRDNAKNTLYLQMNSLKPDDTAMYYCAADQTRYSSLRLLAPNRSASWGQGTQVTVSSGSIGAASMEFCFDVFKELKVHHANENIFYCPIAIMSALAMVYLGAKDSTRTQINKVVRFDKLPGFGDSIEAQCGTSVNVHSSLRDILNQITKPNDVYSFSLASRLYAEERYPILPEYLQCVKELYRGGLEPINFQTAADQARELINSWVESQTNGIIRNVLQPSSVDSQTAMVLVNAIVFKGLWEKAFKDEDTQAMPFRVTEQESKPVQMMYQIGLFRVASMASEKMKILELPFASGTMSMLVLLPDEVSGLEQLESIINFEKLTEWTSSNVMEERKIKVYLPRMKMEEKYNLTSVLMAMGITDVFSSSANLSGISSAESLKISQAVHAAHAEINEAGREVVGSAEAGVDAASVSEEFRADHPFLFCIKHIATNAVLFFGRCVSP
notes: as for B1
B3: SLN0072 VHH-OVA-His (VHH)
chain: EVQLVESGGGSVQAGGSLRLSCVASGYTGSSSYMGWFRQVPGKEREGVAQINSRSGSTYYADSVKGRFTISQDNAKNTVYLQMTSLKPEDTGMYYCAERFGPTFYPVPLGSNLYNYWGQGTQVTVSSGSIGAASMEFCFDVFKELKVHHANENIFYCPIAIMSALAMVYLGAKDSTRTQINKVVRFDKLPGFGDSIEAQCGTSVNVHSSLRDILNQITKPNDVYSFSLASRLYAEERYPILPEYLQCVKELYRGGLEPINFQTAADQARELINSWVESQTNGIIRNVLQPSSVDSQTAMVLVNAIVFKGLWEKAFKDEDTQAMPFRVTEQESKPVQMMYQIGLFRVASMASEKMKILELPFASGTMSMLVLLPDEVSGLEQLESIINFEKLTEWTSSNVMEERKIKVYLPRMKMEEKYNLTSVLMAMGITDVFSSSANLSGISSAESLKISQAVHAAHAEINEAGREVVGSAEAGVDAASVSEEFRADHPFLFCIKHIATNAVLFFGRCVSP
notes: as for B1
B4: SLN0049 VHH-OVA-His (VHH)
chain: EVQLVESGGGSVQAGGSLRLSCAASRATNSRYSMGWFRQAPGKEREGVAAIDSIGRTSYADSVKGRFTISQDGAKNTLYLQMNSLKPEDTAMYYCAATAWRDWATLREYEYGYWGQGTQVTVSSGSIGAASMEFCFDVFKELKVHHANENIFYCPIAIMSALAMVYLGAKDSTRTQINKVVRFDKLPGFGDSIEAQCGTSVNVHSSLRDILNQITKPNDVYSFSLASRLYAEERYPILPEYLQCVKELYRGGLEPINFQTAADQARELINSWVESQTNGIIRNVLQPSSVDSQTAMVLVNAIVFKGLWEKAFKDEDTQAMPFRVTEQESKPVQMMYQIGLFRVASMASEKMKILELPFASGTMSMLVLLPDEVSGLEQLESIINFEKLTEWTSSNVMEERKIKVYLPRMKMEEKYNLTSVLMAMGITDVFSSSANLSGISSAESLKISQAVHAAHAEINEAGREVVGSAEAGVDAASVSEEFRADHPFLFCIKHIATNAVLFFGRCVSP
notes: as for B1
B5: SLN0071 VHH-OVA-His (VHH)
chain: EVQLVESGGGSVQAGGSLRLSCAGSEYTYSRCCMGWFRQAPGKEREGVVSINVLGGTSYADSVKGRFTISRDNAENTLYLQMNSLKPEDTAMYYCAAGLASAPWRPCGTTTEEYKYWGQGTQVTVSSGSIGAASMEFCFDVFKELKVHHANENIFYCPIAIMSALAMVYLGAKDSTRTQINKVVRFDKLPGFGDSIEAQCGTSVNVHSSLRDILNQITKPNDVYSFSLASRLYAEERYPILPEYLQCVKELYRGGLEPINFQTAADQARELINSWVESQTNGIIRNVLQPSSVDSQTAMVLVNAIVFKGLWEKAFKDEDTQAMPFRVTEQESKPVQMMYQIGLFRVASMASEKMKILELPFASGTMSMLVLLPDEVSGLEQLESIINFEKLTEWTSSNVMEERKIKVYLPRMKMEEKYNLTSVLMAMGITDVFSSSANLSGISSAESLKISQAVHAAHAEINEAGREVVGSAEAGVDAASVSEEFRADHPFLFCIKHIATNAVLFFGRCVSP
notes: as for B1
B6: SLN0056 VHH-OVA-His (VHH)
chain: EVQLVESGGGSVQAGGSLRLSCRASGHAYGGNYMGWFRQAPGKEREGVAVLYTGGGSTYYADSVKGRFTISEDNAKNTVYLQMDSLKLEDTAMYYCALALGSARWYTSSLDARAYNIWGQGTQVTVSSGSIGAASMEFCFDVFKELKVHHANENIFYCPIAIMSALAMVYLGAKDSTRTQINKVVRFDKLPGFGDSIEAQCGTSVNVHSSLRDILNQITKPNDVYSFSLASRLYAEERYPILPEYLQCVKELYRGGLEPINFQTAADQARELINSWVESQTNGIIRNVLQPSSVDSQTAMVLVNAIVFKGLWEKAFKDEDTQAMPFRVTEQESKPVQMMYQIGLFRVASMASEKMKILELPFASGTMSMLVLLPDEVSGLEQLESIINFEKLTEWTSSNVMEERKIKVYLPRMKMEEKYNLTSVLMAMGITDVFSSSANLSGISSAESLKISQAVHAAHAEINEAGREVVGSAEAGVDAASVSEEFRADHPFLFCIKHIATNAVLFFGRCVSP
notes: as for B1
B7: SLN-6068 humanized VHH-Fc (Fc fusion)
chain: EVQLVESGGGLVQPGGSLRLSCAASVYTSSTYYMAWFRQAPGKGREGVAAAYAGGGGTVYADSVKGRFTISQDNSKNTLYLQMNSLRAEDTAVYYCAARMSRLLGMAPLLPEHYDSWGQGTLVTVSS
notes: tested as VHH-Fc; also called C2-11; not shown: human IgG4 Fc (VHH-hIgG4 Fc fusion)
B8: SLN-6043 humanized VHH-Fc (Fc fusion)
chain: EVQLVESGGGVVQPGGSLRLSCAASGFTSDNCAVHWVRQAPGKGLEWVSSISSDDSTRYADSVKGRFTISRDNSKNSLYLQMNSLRTEDTALYYCQTKWPCTYRRGGSAYRPAVVWGQGTLVTVSS
notes: tested as VHH-Fc; also called F6-1; not shown: human IgG4 Fc (VHH-hIgG4 Fc fusion)
B9: SLN6062 humanized VHH-Fc (Fc fusion)
chain: EVQLVESGGGLVQPGGSLRLSCAASVYTASCMGWFRQAPGKGLELVSTLNRNSGRTSYVGSVKGRFTISQDNSKKTLYLQMNSLRAEDTAVYYCAATWSWYSFTCPGDQNAYIHWGQGTLVTVSS
notes: tested as VHH-Fc; also called C8-9; not shown: human IgG4 Fc (VHH-hIgG4 Fc fusion)
B10: SLN6065 humanized VHH-Fc (Fc fusion)
chain: EVQLVESGGGLVQPGGSLRLSCAASRDAYFNNYMAWFRQAPGKGLEGVSSIATNTGNDYYADSVKGRFTISRDNSKNTIYLQMNSLRAEDTAVYYCAAGWRGGSFWTPSKYSYWGQGTLVTVSS
notes: tested as VHH-Fc; also called D2-9; not shown: human IgG4 Fc (VHH-hIgG4 Fc fusion)

The first assay deals with T1, human transferrin receptor 1 on HEK293F-hTfR1 cells (human, UniProt P02786 1-760).
T1 construct: whole, on cells
T1 sequence (P02786 whole entry): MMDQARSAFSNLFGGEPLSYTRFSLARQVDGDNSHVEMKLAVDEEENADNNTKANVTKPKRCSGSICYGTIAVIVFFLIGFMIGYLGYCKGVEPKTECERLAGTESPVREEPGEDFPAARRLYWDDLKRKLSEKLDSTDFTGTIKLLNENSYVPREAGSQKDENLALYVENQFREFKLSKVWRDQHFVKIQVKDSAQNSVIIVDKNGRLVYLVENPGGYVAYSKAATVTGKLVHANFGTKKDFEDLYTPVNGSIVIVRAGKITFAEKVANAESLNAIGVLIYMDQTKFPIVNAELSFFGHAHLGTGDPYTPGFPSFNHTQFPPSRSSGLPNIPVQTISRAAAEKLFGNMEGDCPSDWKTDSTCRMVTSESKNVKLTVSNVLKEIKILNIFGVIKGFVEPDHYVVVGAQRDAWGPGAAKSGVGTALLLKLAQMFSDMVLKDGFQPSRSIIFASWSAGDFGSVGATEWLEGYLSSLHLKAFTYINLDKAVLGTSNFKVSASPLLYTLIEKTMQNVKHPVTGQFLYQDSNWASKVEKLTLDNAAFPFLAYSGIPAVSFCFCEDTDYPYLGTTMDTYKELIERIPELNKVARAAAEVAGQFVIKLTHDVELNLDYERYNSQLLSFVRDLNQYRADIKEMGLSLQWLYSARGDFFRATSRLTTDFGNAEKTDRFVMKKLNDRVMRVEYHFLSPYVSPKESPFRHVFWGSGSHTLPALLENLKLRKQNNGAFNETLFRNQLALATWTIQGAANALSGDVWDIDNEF
The assay can be described thus: flow cytometry on HEK293F-hTfR1 cells with or without transferrin. The method, then: (§1) HEK293F-hTfR1 cells were prepared by transfecting hTfR1-expressing plasmid, with a GFP tag, into HEK293F cells. Stable pool was used for this assay. Briefly, the engineered HEK293F cells expressing hTfR1 were cultured with OPM-293 CD05 medium at 37° C., with 8% CO₂ and saturated humidity in cell shaker. […] The cells were washed twice by centrifugation at 300 g for 5 min at 4° C., before rabbit anti-OVA antibodies and a secondary anti-rabbit IgG-AF647 (all prepared in blocking buffer). The cells were scanned with CytoFLEX (Beckman).
On to B1, for which the binding result is reported as “no binding (tested: 10 µg/mL)”.
In the case of B2, the binding result is recorded as “no binding (tested: 10 µg/mL)”.
As for B3, the binding result was “no binding (tested: 10 µg/mL)”.
On to B4, for which the binding result is listed as “no binding (tested: 10 µg/mL)”.
Turning to B5, the binding result is listed as “no binding (tested: 10 µg/mL)”.
Consider B6, for which the binding result is reported as “no binding (tested: 10 µg/mL)”.

The target of another assay is T2, human transferrin (Sigma T3309) (human, UniProt P02787 20-698).
T2 construct: mature; same polypeptide; also called native human transferrin; hTf
T2 sequence (P02787 20-698): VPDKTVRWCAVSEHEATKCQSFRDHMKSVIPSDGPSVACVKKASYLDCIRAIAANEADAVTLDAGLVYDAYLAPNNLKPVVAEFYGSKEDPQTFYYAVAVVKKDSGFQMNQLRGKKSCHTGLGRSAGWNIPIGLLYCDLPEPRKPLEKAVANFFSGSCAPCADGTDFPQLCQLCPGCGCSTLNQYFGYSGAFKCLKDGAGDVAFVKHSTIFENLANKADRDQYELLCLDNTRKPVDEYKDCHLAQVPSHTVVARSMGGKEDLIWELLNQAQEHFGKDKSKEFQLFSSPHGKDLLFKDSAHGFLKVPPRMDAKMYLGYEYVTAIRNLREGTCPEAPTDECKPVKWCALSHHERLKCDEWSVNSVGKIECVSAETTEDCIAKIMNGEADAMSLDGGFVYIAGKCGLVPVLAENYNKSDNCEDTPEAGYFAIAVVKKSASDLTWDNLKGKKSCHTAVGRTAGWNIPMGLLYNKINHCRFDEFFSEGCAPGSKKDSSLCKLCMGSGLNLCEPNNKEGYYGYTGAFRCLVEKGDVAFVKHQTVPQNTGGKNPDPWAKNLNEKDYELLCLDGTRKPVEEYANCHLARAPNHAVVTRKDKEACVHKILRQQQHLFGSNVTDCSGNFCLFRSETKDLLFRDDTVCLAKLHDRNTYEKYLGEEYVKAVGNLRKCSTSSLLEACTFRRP
The assay can be described thus: flow cytometry on HEK293F-hTfR1 cells with human transferrin, pH 7.4; grade by % binding (+++ ≥ 15%). The method, then:
as §1
For the molecule B3, the “percent binding (flow cytometry, VHH/Tf on hTfR1-overexpressing cells, pH 7.4)” value was at least 15%.
Regarding B4, the “percent binding (flow cytometry, VHH/Tf on hTfR1-overexpressing cells, pH 7.4)” value is at least 15%.
In the case of B6, the “percent binding (flow cytometry, VHH/Tf on hTfR1-overexpressing cells, pH 7.4)” value is at least 15%.

For a further assay, the target named is T2, human transferrin (Sigma T3309). The assay can be described thus: flow cytometry on HEK293F-hTfR1 cells with human transferrin, pH 6.0; grade by % binding (+++ ≥ 15%). The method, then:
as §1
In the case of B1, the “percent binding (flow cytometry, VHH/Tf on hTfR1-overexpressing cells, pH 6.0)” value was at least 15%.
On to B3, for which the “percent binding (flow cytometry, VHH/Tf on hTfR1-overexpressing cells, pH 6.0)” value was at least 15%.
Consider B4, for which the “percent binding (flow cytometry, VHH/Tf on hTfR1-overexpressing cells, pH 6.0)” value was at least 15%.
With B6, the “percent binding (flow cytometry, VHH/Tf on hTfR1-overexpressing cells, pH 6.0)” value was at least 15%.

Another assay concerns the target T3, human VEGFA121 (human, UniProt P15692-9 27-147, biotinylated).
T3 construct: Biotinylated; also called hVEGFA121; hVEGFA121-biotin
T3 sequence (looked up): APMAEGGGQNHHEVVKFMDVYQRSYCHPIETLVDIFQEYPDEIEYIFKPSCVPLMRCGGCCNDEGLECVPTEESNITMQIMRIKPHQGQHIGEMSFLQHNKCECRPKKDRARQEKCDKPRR
The assay can be described thus: target-binding ELISA on hVEGFA121, humanized VHH-Fc. The method, then: For binding ELISA, immunoplates were coated with 100 μl/well 1 μg/ml streptavidin and incubate at 4° C. overnight. Wells were washed with PBST for 3 times and blocked with 200 μl of 1% BSA/PBS at RT for 1 hr. Washed with PBST for 3 times and add hVEGFA121-biotin or mVEGFA120-biotin (0.1 μg/ml) 100 al/well and incubated at RT for 1 hr. Plates were washed with PBST for 3 times, 100 al/well 5-fold serially diluted VHH-Fcs from 2 μg/ml was added. and incubate at RT for 1 hr. Plates were washed with PBST for 3 times and add 100 al goat anti-human Fc-HRP (Sigma, A0170) diluted 1/5000 in 1% BSA/PBST to each well and incubate at RT for 1 hr. Plates were then washed as before and add 100 al TMB substrate and incubate at RT for 15 min. 100 al per well stop solution was added to stop the reaction, and the plates were read with microplate reader at 450 nm.
Four VHHs (C2, C8, F6, D2) were selected for humanization. Proceed with plasmid construction and protein production as above, the humanized VHH-Fc was characterized with target-binding (ELISA) and RBA.
On to B7, for which the binding result is “binds”.
As for B8, the binding result is listed as “binds”.
For the molecule B9, the binding result was “binds”.
Consider B10, for which the binding result was “binds”.

For another assay, the target named is T2, human transferrin (Sigma T3309). The assay can be described thus: flow cytometry on HEK293F-hTfR1 cells with human transferrin, pH 7.4; grade by % binding (10% > + ≥ 5%). The method, then: as §1
Consider B2, for which the “percent binding (flow cytometry, VHH/Tf on hTfR1-overexpressing cells, pH 7.4)” value lay in the range of 5 to 10%.
B5: the “percent binding (flow cytometry, VHH/Tf on hTfR1-overexpressing cells, pH 7.4)” value fell in the range of 5 to 10%.
